Here are results for one molecule from EP3088890B1 (Chugai Seiyaku Kabushiki Kaisha, dated 2020).

Where only a bound is given, the exact number is not on record here.

In assay [1] the target is T1, AW5, C-terminally His-tagged recombinant product of positions 1 to 357 of GPC3 (human, UniProt P51654 25-357).
T1 construct: Expressed in CHO cells, cell pellets used in Western blot; The range is as printed and starts at position 1; also called AW5 (1-357); not shown: C-terminal His tag
Description: Western blot analysis, CHO cell pellets. (In general: Immunoblotting shows a protein as a band on a membrane.)

For assay [2], the target named is T2, GPC3 peptide 321-350 (SEQ ID NO: 17) (human).
T2 construct: Synthetic 30-residue peptide of GPC3
T2 peptide: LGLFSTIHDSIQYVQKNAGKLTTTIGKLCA
Description: peptide ELISA, peptide on plate, antibody at 2 µg/mL. For orientation: ELISA stands for enzyme-linked immunosorbent assay.

For assay [3], the target named is T3, AW2, C-terminally His-tagged recombinant product of positions 1 to 196 of GPC3 (human, UniProt P51654 25-196).
T3 construct: Expressed in CHO cells, cell pellets used in Western blot; The range is as printed and starts at position 1; also called AW2 (1-196); not shown: C-terminal His tag
T3 sequence (P51654 25-196): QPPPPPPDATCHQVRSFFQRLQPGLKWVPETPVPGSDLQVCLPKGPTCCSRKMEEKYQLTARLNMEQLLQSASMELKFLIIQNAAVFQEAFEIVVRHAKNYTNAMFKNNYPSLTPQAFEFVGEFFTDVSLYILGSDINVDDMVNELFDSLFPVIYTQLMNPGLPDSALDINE
Nature of the assay: Western blot, pellets of CHO cells expressing the product.

Assay [4] has as its target T4, AW3, C-terminally His-tagged recombinant product of positions 1 to 218 of GPC3 (human, UniProt P51654 25-218).
T4 construct: Expressed in CHO cells, cell pellets used in Western blot; The range is as printed and starts at position 1; not shown: C-terminal His tag
The assay is described as above.

In assay [5] the target is GPC3 core (sGPC3-His) protein (human) (UniProt P51654). Description: ELISA on plate-bound sGPC3; biotin-labeled GT30, no unlabeled antibody.
GPC3 core (sGPC3-His) protein (human), sequence (P51654 25-563 S495A/S509A): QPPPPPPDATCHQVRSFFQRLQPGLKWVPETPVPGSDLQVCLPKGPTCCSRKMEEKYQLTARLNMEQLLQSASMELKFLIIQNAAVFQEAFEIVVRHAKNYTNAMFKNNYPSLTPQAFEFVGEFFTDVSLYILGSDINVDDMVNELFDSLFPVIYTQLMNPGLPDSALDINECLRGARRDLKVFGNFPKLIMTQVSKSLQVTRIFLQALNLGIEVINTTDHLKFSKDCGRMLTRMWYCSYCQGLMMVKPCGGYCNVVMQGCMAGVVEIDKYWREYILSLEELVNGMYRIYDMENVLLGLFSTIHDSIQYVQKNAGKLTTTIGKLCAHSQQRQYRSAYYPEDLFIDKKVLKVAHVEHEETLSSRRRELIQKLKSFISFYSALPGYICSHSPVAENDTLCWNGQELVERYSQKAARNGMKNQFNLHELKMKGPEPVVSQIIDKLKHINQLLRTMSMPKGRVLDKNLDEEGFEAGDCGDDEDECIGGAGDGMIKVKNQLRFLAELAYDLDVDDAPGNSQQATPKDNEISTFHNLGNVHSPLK
Assay [6] has the same target. Description: competition ELISA on plate-bound sGPC3; unlabeled GT30 (100-fold) against competitor biotin-labeled GT114.
Assay [7] has the same target. Description: competition ELISA on plate-bound sGPC3; unlabeled GT30 (100-fold) against competitor biotin-labeled GT165.
The target is the same in assay [8]. Nature of the assay: competition ELISA on plate-bound sGPC3; unlabeled GT30 (100-fold) against competitor biotin-labeled GT607.
The target is the same in assay [9]. Nature of the assay: competition ELISA on plate-bound sGPC3; unlabeled GT30 (100-fold) inhibits competitor biotin-labeled GT30.
The target is the same in assay [10]. Nature of the assay: competition ELISA on plate-bound sGPC3; unlabeled GT30 (100-fold) against competitor biotin-labeled GT30; signal of the labeled antibody.
For assay [11] the target is unchanged. Description: competition ELISA on plate-bound sGPC3; unlabeled GT30 (100-fold) against competitor biotin-labeled GT114; signal of the labeled antibody.
Assay [12] shares this target. Description: competition ELISA on plate-bound sGPC3; unlabeled GT30 (100-fold) against competitor biotin-labeled GT165; signal of the labeled antibody.
Assay [13] shares this target. Nature of the assay: competition ELISA on plate-bound sGPC3; unlabeled GT30 (100-fold) against competitor biotin-labeled GT607; signal of the labeled antibody.

T4 sequence (P51654 25-218): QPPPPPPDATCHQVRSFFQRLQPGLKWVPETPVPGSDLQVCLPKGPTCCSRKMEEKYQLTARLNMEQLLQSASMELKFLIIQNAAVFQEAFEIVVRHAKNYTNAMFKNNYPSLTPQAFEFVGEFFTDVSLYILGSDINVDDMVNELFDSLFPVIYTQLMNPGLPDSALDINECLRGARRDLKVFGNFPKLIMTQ
T1 sequence (P51654 25-357): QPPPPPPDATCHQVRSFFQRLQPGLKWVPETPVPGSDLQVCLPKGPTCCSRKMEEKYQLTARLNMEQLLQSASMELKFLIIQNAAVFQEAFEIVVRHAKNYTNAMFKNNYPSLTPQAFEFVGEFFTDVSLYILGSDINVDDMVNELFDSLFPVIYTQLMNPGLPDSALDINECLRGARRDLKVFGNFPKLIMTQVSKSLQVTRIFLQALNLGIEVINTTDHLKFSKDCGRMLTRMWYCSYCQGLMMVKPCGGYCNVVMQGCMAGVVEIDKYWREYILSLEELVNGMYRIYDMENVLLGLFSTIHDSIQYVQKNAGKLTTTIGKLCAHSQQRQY

B1: GT30 antibody (antibody, IgG1, V domains shown)
VH: QVQLQQSGAELARPGASVKLSCRASGYTFTSYGISWMMQRTGQGLEWIGEIYPRSGITYYNEKFKGKATLTADKSSSTAYMQLSSLTSEDSAVYFCARDVSDGYLFPYWGQGTLVTVSA
VL: DIQMTQSPASLSASVGETVTITCRTSENIYSYLAWYQQKQGKSPQLLVYNAKTLPEGVPSRFSGSGSGTQFSLKINSLQPEDFGSYYCQHHYGTPPTFGGGTKLEIKR
B1: the binding result is reported as “binds” in assay [1], “binds” in assay [2], “no binding” in [3] and “no binding” in assay [4]. In addition, the O.D. 450 in assay [5] turned out to be 1.84 O.D. 450; in assay [10], 0.07 O.D. 450; in assay [11], 2.31 O.D. 450; in assay [12], 0.098 O.D. 450; in [13], 2.12 O.D. 450. For the same molecule, the Inhibitory effect (%) was under 0% in [6], 94% in [7], 3% in assay [8] and 96% in assay [9].
